Test: soluble fraction after stress (log2 fold change); higher = more stays soluble; pooled small domains, quantitative proteomics
Conditions: stress: 75 degC
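Also: 20 min heating vs room temperature control held 20 min.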

Row | Sequence | soluble fraction (log2)
1 | HMEREKTYLMPDLIGRKAERVVPRLQASGFKVEDIRHVYYPGLEKGVIVRQSPPGGYPIQKRNLINLEVS | -0.581
2 | HMERLKKYLDDVRTFLPGTNPKKVDEILREIESHVLERAEREHGEVNDNAVAMSIKEYGSPEEVAARYYEG | 0.809
3 | HMERLSNQVYAILKEMIADYRFNPGARINVEQIAKEVGASRTPVWEAVHRLVQEGLLENIPNRGVFML | -1.45
4 | HMERNAEDFAAKYQEIYQDMFRFALYTLKNRQEAEDVVSETVLDAWKGIEGLKNESAFSAWMFRILVNK | 0.126
5 | HMESADEESNALMYDGLLAMRGKRYEVALEFFDALVKHDPDFAEGWNKRATVLYLLGRYERSIADIKQVLA | 0.239
6 | HMESAEQTGEELAARVNVLQTVSQALARELGREAAVEELADKMKMTVDEVKDIMKMAMDAMSM | 0.294
7 | HMESAESRVDLIGMIGEAITDLRPAGTAQFGEERIDVVSESEWITEGSTVKVVSAEGYRHVVRVME | -0.358
8 | HMESENANVNRAMLTGIASMHAGQLETALNKFNEVIQLAPDFAEGWNKRATIFYLMKKFDRSVNDIAQTLK | 0.0648
9 | HMESFGVAIKRLREAQGWTRADFLRQLGKTGYYMHATTLKRIEEGEQIAKVHEAVIISRLFGVTVEEMG | -3.1
10 | HMESGFEAVREVARHGSFANAAKALGVSGPAVSRQVKSLEERLGLVFFHRTTRMVTLTEAGQQLVDTLD | 0.0837
11 | HMESGNLIFTNAPIADVVNAIETRYGKKLQASNQTSDLQFTGIFKNTDEFSTVVKTIEIALGLQFEV | -1.67
12 | HMESIEAGTFELDNKTSIDISEDEANLLNKMFEELTETNSKDMYGVMVADEAGFNEILEFAKENL | 0.00321
13 | HMESNWLTYAKRIQSIADTGMTFAVDDFDKERYQELADISSKMLADLSNIPIGRIENLLGPLGQ | -1.11
14 | HMESPVNTLPEDQRAWYKALPPELSTKTAVEAGAGVGVSERTVKRLLSNQTFFINLQRGNYRKRH | -0.119
15 | HMESRMTYLQKTKLATENLDAKLIDHQQWVAEVLGEDYRGVYSDEYLRRAAKVFAIFVNNLDD | -2.53
16 | HMESRRVTLLLPYDKAGIADTLRREAAVLSLEYGEDGVTVEAVVKPELWGLVREYVQNDNPK | -0.135
17 | HMESVTETFLTNLINRYIADKAGYIISYPSEYRIEVLYHGGQVLDYENLRKSINTYIPAHIGYKLVTI | 0.176
18 | HMESYDSEIKEVLDLAGKGRWEEAQTKADALREMAPNNSLVERLHGWVLQAAHQRREQALENDIRE | 0.432
19 | HMESYTEEMLEKMSVSKLRTIARELQVDNMTREQIRFGKKTELIQNILEFTGREIENMQLYDK | -0.0481
20 | HMESYWVVLRPMAAGTQIGANDLGYRSVALGAAAKNYLAASTNPIGSITRRRLVAGELLQGSSLTDDARA | -0.653
21 | HMETADREILLREIREIINERVDYNKDITDDEMKELVMNTVFERSRQQYMSIQDKQEIIQAIFNSMR | 0.029
22 | HMETAESLLRRLIMLEDPAMQNAMYVLAVMLERGKQLVERAAKPHESGGILRVYEHKKSGDTFVVLDPR | -0.764
23 | HMETDGGDLTPRERDVLSLIGRGLRNAEAASALGLSEHTIAGHIKSVYSKLGISTRAEAALLASRLGL | -0.499
24 | HMETGGLAQEAERELALLQEQIAHHEALYRKGTPEISDGAFDELFDRYQELADSLGVPADERIDRA | 0.155
25 | HMETIHEMVNRLSSEGFIKNEDGIWYLRDRRGDGTKWLKNPFFESTGEKDAFALIDHLKVNDELLSKLRK | -0.621
26 | HMETINERVNSIIEREGHTVATFAKKIGVPWTTIKNIVSGRNAPSYDIMVKIINAVDWVDANYLVMG | -2.59
27 | HMETKIKFQIQTLDELNIRKVADWDAKAITTVKKGQILDVVDTVAAKNGSTPMYRLESGLYITASPKYVKK | -1.16
28 | HMETKPTELMLDVHKLRIGMFVYLDLGWMDHPFPLNRFKISTNAQIEQIKGLRLKQVKVMTALSDPASLL | -4.91

Row | Sequence | soluble fraction (log2)
29 | HMETKVIVPKVTGMNSKSAINYLSARGLKYKAVPADSGKSFHVVDQYPKSGTKVSPHSTVYLYS | 0.114
30 | HMETLKEVPNLKGQQQEVAKQLLINAGLGVGKINIIEDSTIADGEVVTQSILPNTKVKKDTYVGFTVNKAP | 0.0288
31 | HMETLKLRDSGKEVQSLQELLQRQGLSAPMNGIFDEATKSSVIAFQKANGLDADGIVGYKSWETLFTAG | 0.0141
32 | HMETMSGTVKWFNTQKGYGFITGDDGAEYFAHQTQIKMDGFRTLDAGDIVEFDVRSEEKGLAAVNIVP | 0.781
33 | HMETPDLTQLNPILDEYRGQKGAVIPVLQKAQKIYGFLPPEVLRRIAAGMRVPLSKIYGVATFYSQFY | 0.134
34 | HMETQAGELQDAIRDAIAALPPRTREVFLMSRERNLRYGEIAEALGISVKAVEANMSRALRQLREKLSPFL | -1.26
35 | HMETVMYLRQIKRPQGIYLAIQESYYDSSKKQSRTRTIESIGYLDNLRKEYEDPIAFFSQKAAAMTSEKKK | -1.55
36 | HMETVQTGTVKVSNSLNVRSGAGTNYSVLGSLSNGAKVEIVGTSGSWYKIKYGSGYGYVSKDYVTVS | -0.0122
37 | HMETVSFNPDIAVIPDYRHVVILGETTKTIANKYDIPVDILKAANPGLGNNVTKGDRLRVPDKTKLQ | 0.00398
38 | HMETYHIQMKGDPSKGIVGFSQLDMVIDKIKRLETEKGIAPYELEVLDGDTMEKYSGEEFLTMHE | -0.0165
39 | HMETYSGVERAAILVMYLERTLAKALLDHMNDEEVRRVGMAMASIDRVEGPDIERIVGDFVRELYEVS | -0.642
40 | HMETYTVPEVLGLTPEQAAQLPEVKDIFTLDVKEEGDFSDKPVGTIVRQSPTEGEHRKGDNLVIEVWLSV | 0.166
41 | HMEVADAAQRKILQALQVQPLTVEQLSQELRTDTGDLLVSLSMMEITGLIRREAGNTFLAVFAPK | -1.66
42 | HMEVEIPSREALLGLVQKHLKPVSFDEFVSHFKLGDERQQVGIKRRLRAMERDGQLVYTKANSYGLPDRM | 0.436
43 | HMEVGVSGTVFNTDSLNVRKGPGTNFDTVTSLKRGSVVEVFEQSAVDGTVWGRIANGWVNMQYVSL | -0.707
44 | HMEVKEVDYSAFMTMTEENSISKVEIEENQILFKKKGDDQTTYKTARMDDPALITRLHDQGVDFTGQ | 0.139
45 | HMEVKRANRKERFLEALPYQFSRQDYLNIADKNKIPHKTAEGYITKFVDAGLIHREAHNNYTNPTKA | -0.0913
46 | HMEVLPLHQVKLKYAEADTILIALKSAQSMLSPRGQLLADNRSQQIFVYDDEAHTATLIEAIKHLDQPL | -0.166
47 | HMEVLTEPKVQSIDTHGEKSTFVIESPNPLQPDEIAKLVGADGISVRVDRTWLKSHRDSTWTYSILTVS | -0.118
48 | HMEVPFRNAAIFKTRSGDYAIRASYDGVDLGIKPIEKSTARTYFQLTDVKDKESFLNMTARNQYESEIAGI | -0.0612
49 | HMEVPNLIGMTDKDLQRTYFQLPIEAAGDGSVVIKQLPEPGEKVKEGSVIRVLLG | 0.193
50 | HMEVPQKTLEILEPWRGRKGFLIPVLQAVQHEFGYVPKEAIETVSREMKMPTAEIYGVVTFYAQFH | -0.571
51 | HMEVSEGEIREKVESVFSSNPRQAYNYKQISKKLNINDKSERQIVWDVLRKLAGSGKIQEVEHGRFRARAE | -0.162
52 | HMEVSKETFPAYVAVDSLPVYKSASTSSSKVTTIDFGREVTVVETRGGWAKIQYGSYKGFAEIEGMSKN | -1.06
53 | HMEVVELTDDEKMILATLHDGPVEIGHIKQVVGLSGKKWDAATKSLRQKGLINVVLENEQKLMVK | 0.492
54 | HMEWGEADFVRLDEALATLRTLSPRQAEVVDLRFFSELSLEETAATLGLSLATVKRDWSVARLYLQRALS | 0.198
55 | HMEWTVEKQAAATLNAWMRKNSEMTSEKKVAVAAGIGPATVNRIMKAEVSTTIGVLSSLARAFGHEAYEMI | -0.0249
